The target of assay [1] is T1, Purified His-tagged human HDAC6 ZnF domain (1108-1215) (human, UniProt Q9UBN7 1108-1215).
T1 construct: range 1108-1215; also called ZnF-UBP; His-HDAC6 ZnF (1108-1215); not shown: His tag from vector pOPINF
T1 sequence (looked up): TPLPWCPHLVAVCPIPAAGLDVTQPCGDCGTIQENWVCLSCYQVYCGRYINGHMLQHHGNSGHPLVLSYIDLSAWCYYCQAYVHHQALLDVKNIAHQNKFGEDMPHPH
As to the kind of experiment: pull-down with anti-Flag agarose beads from a mix of His-ZnF (1108-1215), Flag-DARPin and mono-ubiquitin; immunoblot with anti-His, anti-ubiquitin and anti-Flag. From the text:
(§1) [0013] (A) Schematic of HDAC6, showing the catalytic domains (CD1, CD2) and the zinc finger domain (ZnF) region that was expressed (amino acids 1108 to 1215) and used to identify binders. Generic nanobody and DARPin structures (PDB:1I3V and PDB:2QJY, respectively) are shown below. […] [0014] […] PD, pull-down; FT, flow-through. [0015] […] A plasmid expressing mRuby was included in all transfections as a control for transfection efficiency (red signal). Scale bar presents […]. [0016] […] [0017] […] Immunoprecipitated material (from D above) was analysed by mass spectrometry and enriched proteins are annotated.

For assay [2], the target named is T2, endogenous HDAC6 (A549 cells) (human, UniProt Q9UBN7 1-1215).
T2 construct: Endogenous intracellular protein, not a recombinant construct; also called histone deacetylase 6
T2 sequence (looked up): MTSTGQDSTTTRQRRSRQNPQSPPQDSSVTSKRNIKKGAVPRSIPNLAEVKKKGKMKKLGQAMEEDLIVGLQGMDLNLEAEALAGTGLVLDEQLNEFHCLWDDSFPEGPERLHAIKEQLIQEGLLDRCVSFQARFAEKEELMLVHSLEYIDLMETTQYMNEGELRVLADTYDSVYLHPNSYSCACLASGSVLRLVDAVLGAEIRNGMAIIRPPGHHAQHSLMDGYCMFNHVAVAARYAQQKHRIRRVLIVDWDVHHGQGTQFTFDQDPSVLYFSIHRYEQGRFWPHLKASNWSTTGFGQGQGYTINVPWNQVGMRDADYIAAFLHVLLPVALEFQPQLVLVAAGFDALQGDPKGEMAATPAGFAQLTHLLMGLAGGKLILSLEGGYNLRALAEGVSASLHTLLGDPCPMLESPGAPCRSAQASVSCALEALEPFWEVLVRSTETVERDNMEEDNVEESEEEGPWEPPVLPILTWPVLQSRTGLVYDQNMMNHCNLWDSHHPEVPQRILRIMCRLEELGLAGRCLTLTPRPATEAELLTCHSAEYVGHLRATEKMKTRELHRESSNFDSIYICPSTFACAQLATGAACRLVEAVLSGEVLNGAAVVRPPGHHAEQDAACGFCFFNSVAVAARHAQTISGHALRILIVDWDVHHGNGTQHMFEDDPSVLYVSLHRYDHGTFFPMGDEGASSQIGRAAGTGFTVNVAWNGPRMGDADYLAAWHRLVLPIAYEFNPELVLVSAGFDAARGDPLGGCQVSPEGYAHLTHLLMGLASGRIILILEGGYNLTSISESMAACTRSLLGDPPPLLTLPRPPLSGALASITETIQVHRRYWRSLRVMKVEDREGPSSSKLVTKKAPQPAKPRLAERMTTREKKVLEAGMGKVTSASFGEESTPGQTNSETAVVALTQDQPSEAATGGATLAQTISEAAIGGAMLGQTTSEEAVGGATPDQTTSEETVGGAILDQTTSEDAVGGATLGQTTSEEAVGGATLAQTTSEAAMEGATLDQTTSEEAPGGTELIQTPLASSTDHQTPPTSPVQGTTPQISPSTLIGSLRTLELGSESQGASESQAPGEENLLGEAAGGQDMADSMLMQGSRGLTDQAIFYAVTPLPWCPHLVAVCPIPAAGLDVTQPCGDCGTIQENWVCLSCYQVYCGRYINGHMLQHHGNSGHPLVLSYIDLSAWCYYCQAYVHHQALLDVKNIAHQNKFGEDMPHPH
Briefly: GFP-trap immunoprecipitation of GFP-DARPin F10 against control GFP-DARPin E3_5 from A549 cells, mass spectrometry, volcano plot.
From the text: as §1

The next assay deals with T3, GFP(10)-ubiquitin (UniProt P0CG48 1-76).
T3 construct: Expressed in 293T cells; not shown: GFP beta strand 10 and any linker
As to the kind of experiment: split-GFP assay in 293T cells (specificity control).

Residue numbers refer to the chain shown, from its start. In names and notes the source's numbering stands.

B1: Flag-tagged DARPin F10 (F10 with histidine and detection tags) (designed binder)
chain: MRGSHHHHHHHHGSDLGKKLLEAARAGQDDEVRILMANGADVNANDRNGVTPLHLAADKGHLEIVEVLLKTGADVNAIDIMGATPLHLAAAHGHLEIVEVLLKAGADVNAMDHKGFTPLHLAAWRGHLEIVEVLLKHGADVNAQDKFGKTPFDLAIDNGNEDIAEVLQKAAKLNDYKDDDDK
For the molecule B1, the binding result in assay [1] was “binds”.

B2: GFP-DARPin F10 fusion protein (designed binder)
chain: DLGKKLLEAARAGQDDEVRILMANGADVNANDRNGVTPLHLAADKGHLEIVEVLLKTGADVNAIDIMGATPLHLAAAHGHLEIVEVLLKAGADVNAMDHKGFTPLHLAAWRGHLEIVEVLLKHGADVNAQDKFGKTPFDLAIDNGNEDIAEVLQKAA
notes: Transiently expressed in A549 cells from pcDNA3.1-GFP-DARPin F10; not shown: GFP and any linker
As to B2, the binding result in assay [2] is listed as “binds”.

B3: GFP(11)-HDAC6 ZnF (1108-1215) W1182A mutant (other, human, UniProt Q9UBN7 1108-1215, looked up)
chain: T1 sequence (looked up) with W75A
notes: range 1108-1215; Specificity control in the split-GFP assay; also called ZnFm; 1182 mutant; not shown: GFP beta strand 11 and any linker
With B3, the binding result in the assay with GFP(10)-ubiquitin is listed as “no binding”.

Source of the values: patent US20240018265A1 (FRIEDRICH MIESCHER INSTITUTE FOR BIOMEDICAL RESEARCH, published 2024).
